± gives the half width of the 95% confidence interval.
What was measured:
[1] = folding stability dG unfold from trypsin proteolysis; higher = more stable
In short: (§1)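 K50 was inferred by Bayesian fitting of sequencing counts obtained after protease digestion of designed mini-proteins. Unfolding free energy was derived by comparison with a sequence-predicted unfolded-state K50 and a shared folded-state K50, for each protease or both combined. The mini-proteins were under 80 residues, had no cysteine, were carried in a PA-tagged cDNA display construct, and were kept only if AlphaFold2 dimer inter-PAE exceeded 15.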

[2] = folding stability dG unfold (combined trypsin and chymotrypsin); higher = more stable
In short: as §1

[3] = folding stability dG unfold from chymotrypsin proteolysis; higher = more stable
In short: as §1

Row | Sequence | folding stability dG unfold [1] [kcal/mol] | folding stability dG unfold [2] [kcal/mol] | folding stability dG unfold [3] [kcal/mol]
1 | SAGGSAGGSMKIYEVPPEVAENMSLEEIIESLVLPGYPAKAEAFEDEGPGYVLVDLFLPPELGSAGGSAGGS [r12_716_TrMRF] | -0.666 ± 0.12 | 0.842 ± 0.13 | 1.02 ± 0.029
2 | SAGGSAGGSANWYIRIHSPNGQPIWFPMKIKNVTPKGGEIEFKMRNPNGREMPFRVEIFPLESAGGSAGGSA [r18_163_TrROS] | 0.752 ± 0.13 | 0.981 ± 0.13 | 1.16 ± 0.22
3 | MTVTVPPDGTVTITLTDPSGNTYTFTIPVTDPAELRARLEEAIRELFPEFEDIPVRVVAVDGPAVVVEVPLS [r1_389_JUSTAS] | 3.02 ± 0.12 | 3.1 ± 0.086 | 3.12 ± 0.036
4 | SAGGSAETIETVSSTFPVFSEDDKPVAVVKTYIFKFEDGELVLTEVFTPDGKPVAVKVASLDEFLNSAGGSA [r15_755_TrMRF] | 1.27 ± 0.025 | 1.56 ± 0.071 | 1.7 ± 0.045
5 | SAGGMTRVLELTVPVDVIGPEELKALLEALAEDAEVEFEIGPDGLLRVRVTVDVPPDPDAPPDLDGESAGGS [r16_535_TrMRF] | 1.82 ± 0.045 | 2.33 ± 0.11 | 2.4 ± 0.099
6 | SAGGKKPKKLTPEQIEELAKALAPEGAEVKVEVVEVTEKTVVVKITVKDKETGEEKTIEITLPLPEESAGGS [r16_486_TrROS_Hall] | 2.45 ± 0.18 | 2.24 ± 0.22 | 1.73 ± 0.14
7 | SKIRIEWPDETQEIKIPKDASVAIDPGNGHIAIHGPDGEALGFPLGPNWKIEPDDDEIEITIPPPKPEDPSA [r9_653_TrROS] | -0.118 ± 0.15 | 0.158 ± 0.2 | 0.141 ± 0.056
8 | SAGGSAGGSAGSMTLSTSTSTTPTSLTTTTTTTTYDPTTGTTTTTSTTTTTALPAAPPSSTASAGGSAGGSA [r18_16_JUSTAS] | 0.0685 ± 0.064 | 1.37 ± 0.13 | 1.64 ± 0.03
9 | SAGGMKITITLTVKNEELLEELKKLAEELGLKVKIEVKYDEETNELTVTVEIELPPPPEEPSEEELKSAGGS [r16_262_TrROS_Hall] | 2.49 ± 0.12 | 3.24 ± 0.15 | 3.4 ± 0.14
10 | SAGGPTAPAGGPLLAPVPVVVPVPVTLTFPNLTPEQAEALAEYFRSLGAEVSYDSATGTLTVRDYRTSAGGS [r16_765_TrMRF] | 2.28 ± 0.061 | 3.587 ± 0.033 | 3.894 ± 0.014
11 | SAELEELLKKAEELAKKNNVEVEVEVKLELEPVKVTEYKLNKDGKPVEKKEEEELELRLEIKVKIRPKKSAG [r14_728_TrROS_Hall] | 1.26 ± 0.2 | 2.58 ± 0.35 | 3.22 ± 0.2
12 | SAGGSAGGSAGAYRVEVNVELTPEAREAFLKNPELPADAEIPVVVSGRVEPVPLGPEGVLSAGGSAGGSAGG [r17_194_TrMRF] | -0.58 ± 0.2 | -0.143 ± 0.12 | 0.0793 ± 0.14
13 | SAGGSAGGSAGGSMTITYDKENKTLTIKLPNGKKVLTVNLENMTPEQLKELAKKLGLEVSAGGSAGGSAGGS [r4_49_TrROS_Hall] | 3.18 ± 0.2 | 3.44 ± 0.11 | 3.62 ± 0.076
14 | SAGGSAGGMKVTLTPVSGEKYEIEVESEEEAKEKVEKLAKKLGIPGEVKVTIEKGDKTYELTIISAGGSAGG [r6_532_JUSTAS] | 2.98 ± 0.2 | 2.39 ± 0.42 | 2.5 ± 0.11
15 | SAGGMPPGQVVRLRLERVSPTWVRLYFPETGEVLYFPVRPDATLAEAEAIARELAERLGYPVEIETVSAGGS [r16_446_TrMRF] | 3.76 ± 0.077 | 3.8 ± 0.07 | 3.779 ± 0.014
16 | SAGPPPWMVIRIPFWVKVTPDDGIITIEFKIEIGNKEFKIKITIPIPPELADAPPGETIPIPIWIFIRPSAG [r5_714_TrROS] | 3.99 ± 0.16 | 4.81 ± 0.13 | 5.13 ± 0.062
17 | SIIIQFDNPEEAKENAEDFINEFQDEFGPGQKIPITIHDPGGDPATFPIEIEPPPPPVEYDEENGKLKPDSA [r9_596_TrROS] | 1.13 ± 0.18 | 1.51 ± 0.43 | 1.7 ± 0.17

— the supplement of paper PMC12764529
